Assay results as given in paper PMC7719400.

Key:
[1] = target: ORFV125 lacking the 30 C-terminal residues (orf virus); assay: SEC
[2] = target: ORFV125 lacking the 30 C-terminal residues (orf virus); assay: ITC

| Molecule | stoichiometry N [1] | Kd [2] |
| --- | --- | --- |
| ORFV125 lacking the 30 C-terminal residues (domain or fragment) | 2 |  |
| PSSTMGQVGRQLAIIGDDINRRYDSE [Bak BH3 motif peptide (human, 67-92)] |  | 5800 nM |
| VPQDASTKKLSECLKRIGDELDSNMELQ [Bax BH3 motif peptide (human, 50-77, 28-mer)] |  | 682 nM |
| EEQWAREIGAQLRRMADDLNAQYERR [Puma BH3 motif peptide (human, 130-155)] |  | 1750 nM |
